Measurements: patent US20220288124A1 (AUGUSTA UNIVERSITY RESEARCH INSTITUTE, published 2022)
Several values for one entry are separate records, joined by “and”; a condition that tells them apart may be missing. Equal entries are not always repeated. Blank lines part the entries; values can stand above or below the binder they belong to.

Key:
[1] = target: T1, hGPC3 on the surface of HCC tumor cells (HepG2; hGPC3low Huh7) (human, UniProt P51654 25-554); experiment: immunofluorescent staining of HepG2 cells at different mAb concentrations, percent positive cells; hGPC3 on HepG2 cells
T1 construct: whole, on cells; GPI-anchored; also called hGPC3 on HepG2 cells; hGPC3 molecules on the tumor cell surface
T1 sequence (P51654 25-554 limits assumed): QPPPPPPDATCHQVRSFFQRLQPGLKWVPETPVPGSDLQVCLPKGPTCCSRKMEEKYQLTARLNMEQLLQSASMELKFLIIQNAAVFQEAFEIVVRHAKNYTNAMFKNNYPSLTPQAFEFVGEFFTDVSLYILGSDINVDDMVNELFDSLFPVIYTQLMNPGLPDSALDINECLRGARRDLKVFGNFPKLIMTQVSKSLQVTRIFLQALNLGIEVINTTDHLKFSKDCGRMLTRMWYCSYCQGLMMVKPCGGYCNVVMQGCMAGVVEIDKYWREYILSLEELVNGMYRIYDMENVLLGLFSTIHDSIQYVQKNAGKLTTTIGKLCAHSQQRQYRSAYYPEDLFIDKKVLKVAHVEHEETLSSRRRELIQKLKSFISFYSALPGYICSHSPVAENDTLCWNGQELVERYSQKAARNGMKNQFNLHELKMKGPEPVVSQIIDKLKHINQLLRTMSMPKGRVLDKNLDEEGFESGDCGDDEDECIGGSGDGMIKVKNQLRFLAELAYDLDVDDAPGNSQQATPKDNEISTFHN
Text: FIG. 3A is an illustration showing the schematic structure of the recombinant mAbs. SP: signal peptide of human IgG; VL: variable region of light chain; VH: variable region of heavy chain; CL: constant region of human IgG light chain; CH: constant region of human IgG heavy chain. FIG. 3B is gel showing PAGE analysis of purified recombinant mAbs under reduced and non-reduced condition. mAbs were purified from the 293 cells after co-transfection of the L and H chain expressing plasmids. Gel was stained with SimplyBlue SafeStain, FIG. 3C is a graph showing the EC50 of recombinant mAbs by ELISA. FIG. 3D is a panel of graphs showing the Kd value of each mAbs was measured by BLI. Each experiment was repeated at least 3 times and similar data were obtained. FIG. 3E is a graph showing the Kd value of mAbs 6G11, 8F8, and 12D7 for staining HepG2 tumor cells. Immunofluorescent staining was conducted for HepG2 tumor cells using the mAbs at different concentration. Based on the percent of positive cells and the mAb concentration, the Kd value was calculated by Prism software.
(§1) The 3 mAbs belong to different Ig classes, i.e., 6G11 and 12D7 are IgM, whereas 8F8 is IgG2a. To fairly compare their affinity, mAbs were generated recombinant using their VL and VH and a same human IgG constant region. Fig.3A illustrates the structure of the recombinant mAbs. The mAbs were expressed and purified from 293 cells (FIG 3B). […] The mAb's affinity was also studied by BioLayer Interferometry (BLI). […] The affinity data obtained by ELISA assay and BLI are in the same order, i.e., 6G11>12D7>8F8. Because the purpose of developing the mAbs is to bind hGPC3 molecules on the tumor cell surface, we determined the affinity of the mAbs for hGPC3 on HepG2 cells.

[2] = target: T2, soluble hGPC3 protein (recombinant human glypican 3) (human, UniProt P51654 25-560, limits assumed); experiment: BLI, 1:1 global fit; kdis(1/s); kdis Error 3.37E-06, R^2 0.9939
T2 construct: The construct used in ELISA and BLI and as FITC-labelled protein is not further defined; also called rhGPC3; FITC-labeled hGPC3
T2 sequence (P51654 25-560 limits assumed): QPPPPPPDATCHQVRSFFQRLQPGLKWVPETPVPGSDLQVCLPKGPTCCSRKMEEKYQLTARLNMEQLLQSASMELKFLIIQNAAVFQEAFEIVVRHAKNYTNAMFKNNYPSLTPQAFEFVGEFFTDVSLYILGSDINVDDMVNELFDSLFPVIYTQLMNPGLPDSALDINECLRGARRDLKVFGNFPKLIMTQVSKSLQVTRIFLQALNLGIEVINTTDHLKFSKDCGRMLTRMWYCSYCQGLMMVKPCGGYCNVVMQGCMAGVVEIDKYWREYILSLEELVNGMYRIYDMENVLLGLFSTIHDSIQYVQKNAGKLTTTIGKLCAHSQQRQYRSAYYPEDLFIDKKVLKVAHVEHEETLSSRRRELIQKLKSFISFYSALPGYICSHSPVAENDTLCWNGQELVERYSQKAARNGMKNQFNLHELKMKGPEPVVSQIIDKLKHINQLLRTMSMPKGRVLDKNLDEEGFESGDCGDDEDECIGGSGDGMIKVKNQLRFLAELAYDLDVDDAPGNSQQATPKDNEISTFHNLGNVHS
Protocol: (§2) Kinetics experiments were performed using the ForteBio Octet Red96 platform. All data were collected at 25° C. with orbital shaking at 1,000 rpm in 200 μL in 96-well black flat bottom plates (Greiner Bio-one). Anti-hIgG Fc Capture Sensor (ForteBio) were equilibrated for 10 min in 1×kinetics buffer prior to loading with 5 μg/mL of mAbs for 2 min. After the loading step, a 30 s baseline in 1×kinetics buffer was established before association with a range of concentrations of GPC3 for 2 min. Following mAbs association with GP, there was a 10-minute of dissociation step in kinetic buffer. For all experiments, two reference sensors without association to mAbs were used to account for nonspecific binding of analyte to the sensor and the system drift. All data were fit globally to a 1:1 Langmuir binding model using data analysis software 9.0 (ForteBio).

[3] = target: T2, soluble hGPC3 protein (recombinant …); experiment: ELISA of recombinant mAb on hGPC3, OD450
[4] = target: T2, soluble hGPC3 protein (recombinant …); experiment: BLI, 1:1 global fit; KD Error 8.68E-11, R^2 0.9939
Protocol: as §2

[5] = target: T2, soluble hGPC3 protein (recombinant …); experiment: BLI, 1:1 global fit; kon Error 4.12E+02, R^2 0.9939
Protocol: as §2

[6] = target: T3, N1 peptide (AA25-39 of hGPC3) (human, UniProt P51654 25-39); experiment: ELISA on plate-coated synthetic peptide, anti-human IgG-HRP
T3 construct: range 25-39
T3 peptide (looked up): QPPPPPPDATCHQVR
Protocol: (§3) 96-well Flat-Bottom Immuno Plates (from Thermo Fisher) were coated with 4 ug of PBS-diluted peptides, overnight, at […]. 1 ug of rhGPC3 (from Creative Biomart) was used as positive control. The next day, peptides were discarded and plates were blocked with 100 μl of 5% non-fat milk in PBS. Then, the plates were washed with 300 μl/well of PBST (0.1% Tween20). Next, incubation with 100 uL/well of different antibody dilutions. This was followed by four washes with PBST. Then, incubation with 100 uL/well of anti-human IgG-HRP (From KPL) (1:2000 dilution). This was followed by four washes with PBST. Next, 100 uL/well of TMB (from Biolengend), incubation for 30 minutes. Then, 100 uL/well of 2N H2SO4. Lastly, OD450 nm was detected in an xMark™ Microplate Spectrophotometer (from BIO-RAD). If not indicated otherwise, incubations were performed for 1 hour at RT, and antibodies were diluted in 2% non-fat milk in PBS.

[7] = target: T2, soluble hGPC3 protein (recombinant …); experiment: BLI (Octet Red96), mAb captured on anti-hIgG Fc sensor, GPC3 as analyte, 1:1 fit, 25 C; BLI, soluble hGPC3
Protocol: as §2, §1

[8] = target: T4, hGPC3-N fragment (AA1-358) (human, UniProt P51654 25-358); experiment: flow cytometry, intracellular staining of 293 cells transfected with hGPC3-N; gate set on untransfected cells
T4 construct: range 1-358; Detected by intracellular staining or western blot of transfected 293/293T cells
T4 sequence (P51654 25-358 limits assumed, form in doubt): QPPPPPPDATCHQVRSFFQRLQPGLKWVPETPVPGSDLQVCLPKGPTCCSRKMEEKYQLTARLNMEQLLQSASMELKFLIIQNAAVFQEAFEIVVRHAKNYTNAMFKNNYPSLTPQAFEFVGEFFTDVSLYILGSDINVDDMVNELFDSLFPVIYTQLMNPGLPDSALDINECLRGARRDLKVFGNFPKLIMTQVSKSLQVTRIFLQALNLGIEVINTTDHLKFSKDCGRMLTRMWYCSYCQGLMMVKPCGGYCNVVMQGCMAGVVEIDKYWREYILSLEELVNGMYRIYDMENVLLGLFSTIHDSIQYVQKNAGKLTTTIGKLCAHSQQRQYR
Text: FIG. 1A is a table of 22 hGPC3-specific mAbs identified by ELISA assay. Their Ig class, staining of HepG2 cells, and binding of the hGPC3 N- or C-fragment were provided. […] FIG. 1B is a panel of micrographs showing representative immunofluorescent stainings of HepG2 tumor cells by 5 mAbs. FIG. 1C is a diagram of plasmids expressing the N- and C-fragments of hGPC3. FIG. 1D is a panel of graphs showing 293 cells transfected with either hGPC3-N or hGPC3-C plasmid intracellularly stained with indicated mAbs. The gate was set by the parental 293T cells without transfection.

[9] = target: T2, soluble hGPC3 protein (recombinant …); experiment: BLI, 1:1 global fit; KD Error 2.90E-10, R^2 0.9993
Protocol: as §2

[10] = target: T2, soluble hGPC3 protein (recombinant …); experiment: BLI, 1:1 global fit; kon Error 8.02E+01, R^2 0.9993
Protocol: as §2

[11] = target: T2, soluble hGPC3 protein (recombinant …); experiment: BLI, 1:1 global fit; kdis(1/s); kdis Error 1.83E-06, R^2 0.9993
Protocol: as §2

[12] = target: T2, soluble hGPC3 protein (recombinant …); experiment: BLI, 1:1 global fit; kdis(1/s); kdis Error 2.89E-06, R^2 0.9958
Protocol: as §2

N2 (30-68) = target: T5, N2 (30-68) (human, UniProt P51654); experiment: ELISA on plate-coated synthetic peptide, anti-human IgG-HRP
T5 construct: overlapping synthetic peptide
T5 peptide (looked up): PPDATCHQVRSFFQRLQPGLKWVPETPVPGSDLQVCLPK
Protocol: as §3

N3 (59-97) = target: T6, N3 (59-97) (human, UniProt P51654); experiment: as above
T6 construct: overlapping synthetic peptide
T6 peptide (looked up): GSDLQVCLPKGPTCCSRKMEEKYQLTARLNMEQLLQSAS
Protocol: as §3

N4 (88-126) = target: T7, N4 (88-126) (human, UniProt P51654); experiment: as above
T7 construct: overlapping synthetic peptide
T7 peptide (looked up): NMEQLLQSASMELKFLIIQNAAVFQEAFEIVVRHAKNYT
Protocol: as §3

[13] = target: T2, soluble hGPC3 protein (recombinant …); experiment: BLI, 1:1 global fit; KD Error 9.61E-11, R^2 0.9958
Protocol: as §2

[14] = target: T2, soluble hGPC3 protein (recombinant …); experiment: BLI, 1:1 global fit; kon Error 2.81E+02, R^2 0.9958
Protocol: as §2

B3: recombinant mAb 8F8 (8F8 VL and VH fused to human IgG constant regions) (antibody, V domains shown)
VH: EVKLVESGGDLVKPGGSLKLSCAASGFTFSRYGLSWVRQTPEKRLEWVATISGSGSYTYYPDSVKGRFTISRDNAKNNLYLQMSSLRSEDTALYYCVRRGTYGYDNWGQGTTLTVSS
VL: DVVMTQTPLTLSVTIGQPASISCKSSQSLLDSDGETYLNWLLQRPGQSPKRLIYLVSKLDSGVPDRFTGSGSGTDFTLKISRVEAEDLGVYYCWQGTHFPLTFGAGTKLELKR
notes: Expressed in 293 cells; only the claims assign heavy and light; also called 8F8 mAb
EC50 [1]: 12 nM
Kd [9]: 22.9 nM
EC50 [3]: 0.294 µg/mL and 1.93 nM
kon [10]: 8970 M⁻¹ s⁻¹
Kd [7]: 23 nM
koff [11]: 0.000206 s⁻¹

B4: mAb 8F8 (mouse hybridoma antibody) (antibody, V domains shown)
VH: B3 VH
VL: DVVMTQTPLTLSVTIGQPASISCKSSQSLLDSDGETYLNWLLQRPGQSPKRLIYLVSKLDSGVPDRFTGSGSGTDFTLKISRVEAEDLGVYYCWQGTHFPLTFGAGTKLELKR
notes: Mouse IgG2a with kappa light chain, from hybridoma
% of cells in the positive gate [8]: 0.31%

B6: mAb 12D7 (mouse hybridoma antibody) (antibody, V domains shown)
VH: QVQLQQPGSELVRPGASVKLSCKASGYTFTSYWMHWVKQRLGQGLEWIGNIYPGSGSTNYDEKFKSKGTLTVDTSSSTAYMHLSSLTSEDSAVYYCTRGDYDWVFAYWGQGTLVTVSA
VL: DIVMTQSQKFMSTSVGDRVSVTCKASQNVGTNVAWYQQKPGQSPKALIYSASYRYSGVPDRFTGSGSGTDFTLTISNVQSEDLAEYFCQQYNSYPLTFGAGTKLELKR
notes: Mouse IgM with kappa light chain, from hybridoma
% of cells in the positive gate [8]: 43.2%

More lines, now with the values ahead:

EC50 [1]: 0.095 nM
koff [2]: 0.000389 s⁻¹
EC50 [3]: 0.0072 µg/mL and 0.047 nM
Kd [4]: 7.43 nM
kon [5]: 52400 M⁻¹ s⁻¹
binding result [6]: binds
Kd [7]: 7.4 nM
B1: recombinant mAb 6G11 (6G11 VL and VH fused to human IgG constant regions) (antibody, V domains shown)
VH: QVQLQQPGSELVRPGASVKLSCKASGYTFTSCWMHWVKQRPGQGLEWIGNIYPGYGNTNYDEKFKNKATLTVDTSSSTAYMQLSGLTSEDSAVYYCTRGSYLYAMDYWGQGTSVTVSS
VL: DIQMNQSPSSLSASLGDTITITCHASQNINVWLSWYQQKPGNIPKLLIYKASNLHTGVPSRFSGSGSGTGFTLTISSLQPEDIATYYCQQGQSYPWTFGGGTKLEIKR
notes: Expressed in 293 cells; only the claims assign heavy and light; also called 6G11 mAb

% of cells in the positive gate [8]: 44.3%
B2: mAb 6G11 (mouse hybridoma antibody) (antibody, V domains shown)
VH: B1 VH
VL: B1 VL
notes: Mouse IgM with kappa light chain, from hybridoma; claim 21 names 5 and 7 as the amino acid entries

EC50 [1]: 0.1 nM
EC50 [3]: 0.125 µg/mL and 0.82 nM
EC50 (read off the curve) [3]: ~0.1 µg/mL
koff [12]: 0.000405 s⁻¹
binding result (N2 (30-68)): no binding (tested: 10 µg/ml)
binding result (N3 (59-97)): no binding (tested: 10 µg/ml)
binding result [6]: no binding (tested: 10 µg/ml)
binding result (N4 (88-126)): no binding (tested: 10 µg/ml)
Kd [13]: 9.76 nM
kon [14]: 41500 M⁻¹ s⁻¹
Kd [7]: 9.8 nM
B5: recombinant mAb 12D7 (12D7 VL and VH fused to human IgG constant regions) (antibody, V domains shown)
VH: B6 VH
VL: B6 VL
notes: Expressed in 293 cells; only the claims assign heavy and light; also called 12D7 mAb
